One block for each substance: values may come before it.
Tests used:
[1] = molecular target: orphan G-protein coupled receptor G10d (human) (UniProt O15218); assay: cell-based or functional assay
[2] = molecular target: type I angiotensin II receptor (AT1), bovine (bovine) (UniProt P25104); assay: cell-based or functional assay
Sequence of type I angiotensin II receptor (AT1), bovine (bovine) (P25104 whole entry): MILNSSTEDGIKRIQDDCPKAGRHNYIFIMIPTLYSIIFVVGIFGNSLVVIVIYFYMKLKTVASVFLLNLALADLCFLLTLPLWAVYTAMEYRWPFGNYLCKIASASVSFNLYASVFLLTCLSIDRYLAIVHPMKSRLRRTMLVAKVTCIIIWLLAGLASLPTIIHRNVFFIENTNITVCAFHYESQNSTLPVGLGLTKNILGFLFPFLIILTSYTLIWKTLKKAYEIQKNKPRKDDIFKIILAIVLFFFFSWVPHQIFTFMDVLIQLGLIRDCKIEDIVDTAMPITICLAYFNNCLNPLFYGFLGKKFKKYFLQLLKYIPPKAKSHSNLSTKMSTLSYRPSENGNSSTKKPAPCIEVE

Sequence of orphan G-protein coupled receptor G10d (human) (O15218 whole entry): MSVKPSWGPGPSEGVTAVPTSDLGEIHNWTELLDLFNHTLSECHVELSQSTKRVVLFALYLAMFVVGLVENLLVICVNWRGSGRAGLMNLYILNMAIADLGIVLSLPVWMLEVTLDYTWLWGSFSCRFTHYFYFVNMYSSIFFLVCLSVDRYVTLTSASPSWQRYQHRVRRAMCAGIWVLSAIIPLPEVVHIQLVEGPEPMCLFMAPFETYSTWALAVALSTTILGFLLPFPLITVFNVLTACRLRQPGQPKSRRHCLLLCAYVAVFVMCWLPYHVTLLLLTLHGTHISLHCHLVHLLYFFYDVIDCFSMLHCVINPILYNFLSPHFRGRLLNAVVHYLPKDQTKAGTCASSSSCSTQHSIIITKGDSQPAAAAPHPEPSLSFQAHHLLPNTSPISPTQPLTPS

- induction ratio of the reporter (Renilla reniformis luciferase, CRE), host GBCRC6 with pAGal9-G10d, 100 nmol/L of ACTH [1]: 11 fold
Substance: adrenocorticotropic hormone (ACTH) (from UniProt P01189 138-176) (peptide)

- firefly luciferase activity (CRE reporter), host GBCC13 with pAGal9-AT1, angiotensin II 100 nmol/L [2]: 85 fold
Substance: human angiotensin II (manufactured by Bachem) (from UniProt P01019 25-476) (peptide)

- induction ratio of the reporter (Renilla reniformis luciferase, CRE), host GBCRC6 with pAGal9-G10d, 100 µmol/L of α-MSH as printed [1]: 10 fold
Substance: α-melanocyte-stimulating hormone (α-MSH) (from UniProt P01189 138-150) (peptide)

— patent US20070105096A1
